Measured values taken from the supplement of paper PMC9170038.

tested on: MS2 coat protein; test: apparent KD of MS2 coat protein; higher = weaker reporter binding; details: Eterna round: R107; input ligand: theophylline 20 uM
Outline: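 Each design's apparent KD comes from the median of binding-curve fits to its normalised clusters. Those clusters carried RNA switches transcribed on-chip from Illumina sequencing clusters. SNAP-549-labelled MS2 coat protein was titrated onto them in twofold steps (0.7 or 1.5 nM to 3 µM; per step 0.8–1.5 h down to 10–20 min). Conditions were 100 mM Tris-HCl pH 7.5, 80 mM KCl, 4 mM MgCl2, without or with constant ligand.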

Row | Sequence | apparent KD of MS2 coat protein
1 | GUACAUGAGGAUCACCCAUGUAUAGUUGAAGGAGCGACCAGAGGGUCAGGUAGGUCGCAGCACAUGAGGUAAGGCCGUGUAUGCU [#1 Exclusion - Arginine A Attempt #20 (Inspired by Pi)] | 23.9 nM
2 | GGCUUCAACUCGGCCGCCACUGGUGAUCCUCAUGUACAUGAGGAUCACCCAUGUACAUGAGACUACAGGACCGGGAGAUCAGCAA [Tryptophan B] | 28.8 nM
3 | CCCAAAUAGAUCAAAGGAAUUAUACUCGAAGGAGCGUCAUAGUAGGCAGGUAGGUCGCGAGACAUGAGGAUCACCCAUGUAGAGA [sssmullin] | 45.6 nM
4 | AAUUCAGGGUCGGCCGCCACUGGUAUGGCGAGUCCUCGAACUUACAUGAGGAUCACCCAUGUGAACAGGACCGGGACAGCAUGGG [Exclusion Tryptophan B GF 22] | 256 nM
5 | AAAUAGGUAGGAGAUACCAGAUAGGUUAACAUGAGGAUCACCCAUGUGUAUGCACUUAGUGUCCCUUGGCAGCUCCUGGAUCUGG [#19 Same State - Theophylline B] | 77.9 nM
6 | AAAACGCAACUCGAUACCAGUACACUGAGUCUUCGCCACGACAUGAGGAUCACCCAUGUGUACCCUUGGCAGCGACAGAGCCACA [theeternabot_exclusion_MS2_Theo_B_42] | 84.9 nM
7 | ACAUGAGGAUCACCCAUGUGCAUGAUGAUCCGAGGACCGGUACGGCCGCCACUCGUCAUGAUGAUCUUUCAUGUUUGUCGCGCGC [Flamini II] | 326 nM
8 | AGCGUAUAGACGGAUACCAGCGCCAAUUAACAUGAGGAUCACCCAUGUAGUGUGGGUGGACGCCCUUGGCAGCCGAGUAUAGGUA [Exclusion - Theophylline B / A] | 274 nM
9 | UAUCGGCACUGAAGGAGCGAGUUGACAAACAUGAGGAUCACCCAUGUUAUGGGUUGUUAAUCUCAGGUAGGUCGCAGUUGUCGCA [Same State Arginine B GF 19] | 403 nM
10 | UUUUACGGCGAUCUGGGUUUACCAGAUCGGCGAGGACCGGUACGGCCGCCACUCGUGUUUCUUUGACAUGAGGAUCACCCAUGUA [whbob_SS_trypto A_f1] | 42.5 nM
11 | CCACAUGAGGAUCACCCAUGUAUAGUUGAAGGAGCGAUCAUUAGGUCAGGUAGGUCGCAGCACAUGAGGAUCACCCAUGUCGAAA [DOUBLE!!! :-D #3] | 60.9 nM
12 | AGCCUCAUACAUGAGGAUCACCCAUGUGAUACCAGUCAGGAAACUGACCCUUGGCAGCGCAUGAGGAUCACCCAUGCGCGAGGCA [Omei Theo A Exc A v1] | 123 nM
13 | UGCGAUGAACCUGAUACCAGAUGUAUUUGCUCCUCGGACAACAUGAGGAUCACCCAUGUCAUCCCUUGGCAGCAGGAGCGAAAGC [theeternabot_exclusion_MS2_Theo_B_21] | 14.3 nM
14 | AUAUUUAACGGAAGGAGCGGGAAAUAAUCAUGAUGACAUGAGGAUCACCCAUGUCUUAAAACCCAGGUAGGUCGCCGAAUAAUAA [Same State - Arginine B] | 14.5 nM

same assay, conditions: Eterna round: R107; input ligand: theophylline 2 mM

Row | Sequence | apparent KD of MS2 coat protein
15 | GGUGUAAUUGACUCUUUGUUUUAUUUGUAACGAGGACCGGUACGGCCGCCACUCGAUAUUCACAUGAGGAUCACCCAUGUUAGCU [JR_ExcTryptoA_Sub006] | 24.3 nM
16 | AUUAUAGUUUAUAACGAAGUUGAUACAGAAGGAGCGGGAGUAAUCUCAGGUAGGUCGCUGAUAAUACAUGAGGAUCACCCAUGUG [#15 Same State - Arginine A] | 24.7 nM
17 | AGUGUCGGAGCGGCCGCCACUAGCACAUCUGGUCGCCAUGGCAACAUGAGGAUCACCCAUGUUGCUAGGACCGGGCUCAAUAUUU [Maengele] | 8.8 nM
18 | UGUAUGUGAUUUGAUACCAGACCAGCUGGUGGUACCUGAGGAUCACCCGGGUAGGUUUGGGUCCCUUGGCAGCAAAUCGCAUACU [SS Theo B #24 Ms8] | 31.5 nM
19 | UCGCCCAGGUAGGAUUGAUGGGAUAUGGAAGGAGCGCUGAUGCCAGCAGGUAGGUCGCCAACGGACAUGAGGAUCACCCAUGUAC [Same State - Arginine A (Freestyle 5)] | 28.3 nM
20 | AGCGACAUGAGGAUCACCCAUGUACAUUCCCGAGGACCGGUACGGCCGCCACUCGAUGGAAGUGGUAGCAGCUUGGAUGGGCCUA [theeternabot_sameState_MS2_Trp_A_23] | 17.8 nM
21 | UGUCGGCCGCCAGGAAAUGGUGGCCGACAUCGAGGACCGGUACGGCCGCCACUCGGUCGUACAUGAGGAUCACCCAUGUCGGUGA [SameState-Tryptophan_A Attempt #10 (HarryS)] | 942 nM
22 | GGAUAUAGGGAACCGUAUCCGAAACCUGAAGGAGCGGCCGAAAGGCCAGGUAGGUCGCGGGAACAUGAGGAUCACCCAUGUAUUC [dancer] | 59.2 nM
23 | GGCACAUAGUCGGCCGCCACUAGUGGGAAAUGGGAGAACAUGAGGAUCACCCAUGUAUAAUAGCCUAGGACCGGGACUAUGUGCC [Elk] | 113 nM
24 | AGUCUUAUAGGAAGGAGCGCAUACUUCACAUGAGGAUCACCCAUGUCAAGGAGUGAGUCAAUGCAGGUAGGUCGCCUAACUAAGA [Same State - Arginine B (Freestyle 10)] | 139 nM
25 | AGCAACAAGUCGGCCGCCACUCAUAUUACAUGAGGAUCACCCAUGUUUACAUCAAGGUCAUAAUAGAGGACCGGGACAGUUGCAU [JR_SSTryptoB_Sub017] | 41.5 nM
26 | GUACAUGAGGAUCACCCAUGUAUAGUUGAAGGAGCGACCAGAGGGUCAGGUAGGUCGCAGCACAUGAGGUAAGGCCGUGUAUGCU [#1 Exclusion - Arginine A Attempt #20 (Inspired by Pi)] | 21.7 nM
27 | GGCUUCAACUCGGCCGCCACUGGUGAUCCUCAUGUACAUGAGGAUCACCCAUGUACAUGAGACUACAGGACCGGGAGAUCAGCAA [Tryptophan B] | 22.5 nM
28 | CCCAAAUAGAUCAAAGGAAUUAUACUCGAAGGAGCGUCAUAGUAGGCAGGUAGGUCGCGAGACAUGAGGAUCACCCAUGUAGAGA [sssmullin] | 57.2 nM
29 | AAUUCAGGGUCGGCCGCCACUGGUAUGGCGAGUCCUCGAACUUACAUGAGGAUCACCCAUGUGAACAGGACCGGGACAGCAUGGG [Exclusion Tryptophan B GF 22] | 239 nM
30 | AAAUAGGUAGGAGAUACCAGAUAGGUUAACAUGAGGAUCACCCAUGUGUAUGCACUUAGUGUCCCUUGGCAGCUCCUGGAUCUGG [#19 Same State - Theophylline B] | 63.2 nM
31 | ACAUGAGGAUCACCCAUGUGCAUGAUGAUCCGAGGACCGGUACGGCCGCCACUCGUCAUGAUGAUCUUUCAUGUUUGUCGCGCGC [Flamini II] | 422 nM
32 | UAUCGGCACUGAAGGAGCGAGUUGACAAACAUGAGGAUCACCCAUGUUAUGGGUUGUUAAUCUCAGGUAGGUCGCAGUUGUCGCA [Same State Arginine B GF 19] | 576 nM
33 | UUUUACGGCGAUCUGGGUUUACCAGAUCGGCGAGGACCGGUACGGCCGCCACUCGUGUUUCUUUGACAUGAGGAUCACCCAUGUA [whbob_SS_trypto A_f1] | 39.2 nM
34 | CCACAUGAGGAUCACCCAUGUAUAGUUGAAGGAGCGAUCAUUAGGUCAGGUAGGUCGCAGCACAUGAGGAUCACCCAUGUCGAAA [DOUBLE!!! :-D #3] | 72.8 nM
35 | AUAUUUAACGGAAGGAGCGGGAAAUAAUCAUGAUGACAUGAGGAUCACCCAUGUCUUAAAACCCAGGUAGGUCGCCGAAUAAUAA [Same State - Arginine B] | 13 nM

same assay, conditions: Eterna round: R107; input ligand: tryptophan 2.4 mM

Row | Sequence | apparent KD of MS2 coat protein
36 | AGCAUUGUAACAGAUACCAGACUUUUAAUGCCUCUAAUUACAUGAGGAUCACCCAUGUUUGUCCCUUGGCAGCUGUUAUGAUGCA [JR_ExcTheophyB_Sub009] | 125 nM
37 | UGUAACAUGAGGAUCACCCAUGUAAGUGAUACCAGAUAAGUAGUAGUCCCUUGGCAGCAUAUUGGGAAAGUGUAUAGUGUAUAUG [Same State - Theophylline A (Freestyle 4)] | 58.4 nM
38 | AUUAUAGUUUAUAACGAAGUUGAUACAGAAGGAGCGGGAGUAAUCUCAGGUAGGUCGCUGAUAAUACAUGAGGAUCACCCAUGUG [#15 Same State - Arginine A] | 18.9 nM
39 | UGUAUGUGAUUUGAUACCAGACCAGCUGGUGGUACCUGAGGAUCACCCGGGUAGGUUUGGGUCCCUUGGCAGCAAAUCGCAUACU [SS Theo B #24 Ms8] | 48.6 nM
40 | UCGCCCAGGUAGGAUUGAUGGGAUAUGGAAGGAGCGCUGAUGCCAGCAGGUAGGUCGCCAACGGACAUGAGGAUCACCCAUGUAC [Same State - Arginine A (Freestyle 5)] | 25.2 nM
41 | UGUCGGCCGCCAGGAAAUGGUGGCCGACAUCGAGGACCGGUACGGCCGCCACUCGGUCGUACAUGAGGAUCACCCAUGUCGGUGA [SameState-Tryptophan_A Attempt #10 (HarryS)] | 1200 nM
42 | UAAAACAUGAGGAUCACCCAUGUAAAUGAUACCAGAGUGAUGAUCCUCCCUUGGCAGCAUAACGCUGAUUGGAAACAAUCAGCGA [Mat - Same State Theophlline A - Mod of Eli - D23] | 75.8 nM
43 | GGAUAUAGGGAACCGUAUCCGAAACCUGAAGGAGCGGCCGAAAGGCCAGGUAGGUCGCGGGAACAUGAGGAUCACCCAUGUAUUC [dancer] | 55.4 nM
44 | GGCACAUAGUCGGCCGCCACUAGUGGGAAAUGGGAGAACAUGAGGAUCACCCAUGUAUAAUAGCCUAGGACCGGGACUAUGUGCC [Elk] | 55.3 nM
45 | AGUCUUAUAGGAAGGAGCGCAUACUUCACAUGAGGAUCACCCAUGUCAAGGAGUGAGUCAAUGCAGGUAGGUCGCCUAACUAAGA [Same State - Arginine B (Freestyle 10)] | 88.3 nM
46 | GUACAUGAGGAUCACCCAUGUAUAGUUGAAGGAGCGACCAGAGGGUCAGGUAGGUCGCAGCACAUGAGGUAAGGCCGUGUAUGCU [#1 Exclusion - Arginine A Attempt #20 (Inspired by Pi)] | 16.8 nM
47 | CCCAAAUAGAUCAAAGGAAUUAUACUCGAAGGAGCGUCAUAGUAGGCAGGUAGGUCGCGAGACAUGAGGAUCACCCAUGUAGAGA [sssmullin] | 34.9 nM
48 | AAUUCAGGGUCGGCCGCCACUGGUAUGGCGAGUCCUCGAACUUACAUGAGGAUCACCCAUGUGAACAGGACCGGGACAGCAUGGG [Exclusion Tryptophan B GF 22] | 214 nM
49 | AAAUAGGUAGGAGAUACCAGAUAGGUUAACAUGAGGAUCACCCAUGUGUAUGCACUUAGUGUCCCUUGGCAGCUCCUGGAUCUGG [#19 Same State - Theophylline B] | 60.5 nM
50 | AAAACGCAACUCGAUACCAGUACACUGAGUCUUCGCCACGACAUGAGGAUCACCCAUGUGUACCCUUGGCAGCGACAGAGCCACA [theeternabot_exclusion_MS2_Theo_B_42] | 57.7 nM
51 | AGCGUAUAGACGGAUACCAGCGCCAAUUAACAUGAGGAUCACCCAUGUAGUGUGGGUGGACGCCCUUGGCAGCCGAGUAUAGGUA [Exclusion - Theophylline B / A] | 250 nM
52 | UAUCGGCACUGAAGGAGCGAGUUGACAAACAUGAGGAUCACCCAUGUUAUGGGUUGUUAAUCUCAGGUAGGUCGCAGUUGUCGCA [Same State Arginine B GF 19] | 500 nM
53 | CCACAUGAGGAUCACCCAUGUAUAGUUGAAGGAGCGAUCAUUAGGUCAGGUAGGUCGCAGCACAUGAGGAUCACCCAUGUCGAAA [DOUBLE!!! :-D #3] | 58.4 nM
54 | AGCCUCAUACAUGAGGAUCACCCAUGUGAUACCAGUCAGGAAACUGACCCUUGGCAGCGCAUGAGGAUCACCCAUGCGCGAGGCA [Omei Theo A Exc A v1] | 36.8 nM
55 | UGCGAUGAACCUGAUACCAGAUGUAUUUGCUCCUCGGACAACAUGAGGAUCACCCAUGUCAUCCCUUGGCAGCAGGAGCGAAAGC [theeternabot_exclusion_MS2_Theo_B_21] | 11.4 nM
56 | AUAUUUAACGGAAGGAGCGGGAAAUAAUCAUGAUGACAUGAGGAUCACCCAUGUCUUAAAACCCAGGUAGGUCGCCGAAUAAUAA [Same State - Arginine B] | 11.7 nM
